Measured values from patent publication US20230190880A1, “Formulations of Human Parathyroid Hormone (PTH) and Methods for Producing Same” (Sichuan Luzhou Buchang BIO-Pharmaceutical Co., Ltd., priority 2020, published 2023).

Assay: Screening of pH and buffers: stability of liquid huPTH formulations by SEC-, RP- and CEX-HPLC
Assay type: physicochemical
Conditions: accelerated stability at 25° C. and 37° C.; pH 4.0-9.0 buffers, 140 mM NaCl, 1 mg/mL huPTH
Experimental: Recombinant huPTH (1 mg/mL) having the amino acid sequence set forth in SEQ ID NO: 2 was used as an active ingredient in the formulations. Table 1 provides a summary of the formulations that were tested in this example.
The results of SEC-HPLC, RP-HPLC and CEX-HPLC performed at 25° C. and 37° C. are depicted in FIGS. 4-6. The results of SEC-HPLC and RP-HPLC performed at 4° C. are depicted in FIGS. 7-8.

## CC[C@H](C)[C@H](NC(=O)[C@H](CCC(=O)O)NC(=O)[C@H](CO)NC(=O)[C@@H](NC(=O)[C@@H](N)CO)C(C)C)C(=O)N[C@@H](CCC(N)=O)C(=O)N[C@@H](CC(C)C)C(=O)N[C@@H](CCSC)C(=O)N[C@@H](Cc1cnc[nH]1)C(=O)N[C@@H](CC(N)=O)C(=O)N[C@@H](CC(C)C)C(=O)NCC(=O)N[C@@H](CCCCN)C(=O)N[C@@H](Cc1cnc[nH]1)C(=O)N[C@@H](CC(C)C)C(=O)N[C@@H](CC(N)=O)C(=O)N[C@@H](CO)C(=O)N[C@@H](CCSC)C(=O)N[C@@H](CCC(=O)O)C(=O)N[C@@H](CCCN=C(N)N)C(=O)N[C@H](C(=O)N[C@@H](CCC(=O)O)C(=O)N[C@@H](Cc1c[nH]c2ccccc12)C(=O)N[C@@H](CC(C)C)C(=O)N[C@@H](CCCN=C(N)N)C(=O)N[C@@H](CCCCN)C(=O)N[C@@H](CCCCN)C(=O)N[C@@H](CC(C)C)C(=O)N[C@@H](CCC(N)=O)C(=O)N[C@@H](CC(=O)O)C(=O)N[C@H](C(=O)N[C@@H](Cc1cnc[nH]1)C(=O)N[C@@H](CC(N)=O)C(=O)N[C@@H](Cc1ccccc1)C(=O)O)C(C)C)C(C)C [huPTH]
  stability profile as a function of pH: best stability profile at pH 5
